Patent US20210338833A1 (MIT, published 2021)

Tests used:
FMC63 IgG [1] = molecular target: T1, FMC63 IgG; assay: yeast display FACS selection with biotinylated FMC63 IgG, second sort
T1 construct: Murine monoclonal antibody to human CD19; also called FMC63 IgG antibody; biotinylated FMC63 IgG
From the text: As in Example 1, a yeast library was generated using nested PCR and the primers in Table 3.

FMC63 scFv = molecular target: T2, FMC63 scFv (biotinylated); assay: yeast-display FACS titration with biotinylated FMC63 scFv
T2 construct: Whole scFv entry (VL-(G4S)3-VH); also called FMC63-scFv monomer; biotinylated FMC63 scFv
T2 sequence (scFv, as listed by the source): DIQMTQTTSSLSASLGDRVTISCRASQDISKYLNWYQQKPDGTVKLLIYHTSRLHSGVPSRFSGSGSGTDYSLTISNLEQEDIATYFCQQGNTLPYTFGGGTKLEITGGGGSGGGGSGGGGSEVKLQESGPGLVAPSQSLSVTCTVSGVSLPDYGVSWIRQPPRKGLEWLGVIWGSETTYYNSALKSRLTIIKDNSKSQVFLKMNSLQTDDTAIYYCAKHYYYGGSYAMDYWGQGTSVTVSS

FMC63 IgG [2] = molecular target: T1, FMC63 IgG; assay: yeast-display FACS (MFI) titration with biotinylated FMC63 IgG, 0.01-1000 nM

T1 sequence (VH, as listed by the source, chain 1 of 2): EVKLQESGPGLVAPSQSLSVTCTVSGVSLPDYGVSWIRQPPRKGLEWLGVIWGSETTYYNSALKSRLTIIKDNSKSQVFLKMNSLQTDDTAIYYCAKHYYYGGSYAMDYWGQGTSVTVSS
T1 sequence (VL, as listed by the source, chain 2 of 2): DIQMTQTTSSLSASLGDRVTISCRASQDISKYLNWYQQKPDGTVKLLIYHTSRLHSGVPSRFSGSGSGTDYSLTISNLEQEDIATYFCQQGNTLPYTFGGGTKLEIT

Row | binding result (FMC63 IgG [1]) | Kd (FMC63 scFv) | Kd (FMC63 IgG [2]) | Binder
1 | binds | – | – | RICPWDCKPI [FMC63 Mimotope RICPWDCKPI]
2 | – | 178 nM | 199 nM | RVCPWSCMPI (Not the 1D3 mimotope that is also called H1) [FMC63 Mimotope (H1) RVCPWSCMPI]
3 | – | – | 376 nM | RICPWSCMVV [FMC63 Mimotope (B7) RICPWSCMVV]
4 | binds | – | – | RICPWSCVKQ [FMC63 Mimotope RICPWSCVKQ]
5 | binds | – | – | RLCPWSCIKL [FMC63 Mimotope RLCPWSCIKL]
6 | binds | – | – | RLCPWSCVEQ [FMC63 Mimotope RLCPWSCVEQ]
7 | – | 240 nM | 540 nM | RRCPWSCKKQ [FMC63 Mimotope (A12) RRCPWSCKKQ]
8 | binds | – | – | RLCPWSCLEI [FMC63 Mimotope RLCPWSCLEI]
9 | – | 238 nM | 322 nM | RMCPWSCYEL [FMC63 Mimotope (C5) RMCPWSCYEL]
10 | binds | – | – | RLCPWSCIPF [FMC63 Mimotope RLCPWSCIPF]
11 | – | 219 nM | 252 nM | RLCPWACQEQ [FMC63 Mimotope (C7) RLCPWACQEQ]
12 | binds | – | – | RICPWGCKEL [FMC63 Mimotope RICPWGCKEL]
13 | – | 50.6 nM | 25.7 nM | RLCPWSCREL (Parent of the alanine scan) [FMC63 Mimotope (G9) RLCPWSCREL]
14 | – | 38.6 nM | 10.3 nM | RICPWSCREL [FMC63 Mimotope (H11) RICPWSCREL]
15 | binds | – | – | RICPWSCMEL [FMC63 Mimotope RICPWSCMEL]
16 | binds | – | – | RLCPWNCRQL [FMC63 Mimotope RLCPWNCRQL]
17 | binds | – | – | RICPWSCIEL [FMC63 Mimotope RICPWSCIEL]
18 | binds | – | – | RLCPWNCQEL [FMC63 Mimotope RLCPWNCQEL]
19 | – | 38.9 nM | 9.5 nM | RICPWACVEL [FMC63 Mimotope (H8) RICPWACVEL]
20 | binds | – | – | RICPWSCRPL [FMC63 Mimotope RICPWSCRPL]
21 | binds | – | – | RLCPWNCSEL [FMC63 Mimotope RLCPWNCSEL]
22 | binds | – | – | RLCPWDCKEL [FMC63 Mimotope RLCPWDCKEL]
23 | binds | – | – | RLCPWKCREL [FMC63 Mimotope RLCPWKCREL]
24 | binds | – | – | RICPWSCVEL [FMC63 Mimotope RICPWSCVEL]
25 | binds | – | – | RMCPWNCREL [FMC63 Mimotope RMCPWNCREL]
26 | – | 38.4 nM | 18.2 nM | RLCPWNCREL [FMC63 Mimotope (G11) RLCPWNCREL]
27 | – | 41.5 nM | 10.6 nM | RLCPWDCREL [FMC63 Mimotope (F8) RLCPWDCREL]
28 | – | – | 397 nM | RMCPWSCRPH [FMC63 Mimotope (A8) RMCPWSCRPH]
